Experiments:
[1] = test system: Bovine capillary endothelial (BCE) cells; experiment: Endothelial cell migration assay (Boyden chamber, bFGF-stimulated); assay type: cell-based; details: bFGF 10 ng/ml, 4 hours migration; read-out: IC50 of inhibition of bFGF-induced BCE cell migration
Procedure: Bovine capillary endothelial (BCE) cells were harvested from bovine adrenal glands as previously described (33). BCE cells were maintained in DMEM in the presence of 10% bovine calf serum, 1% antibiotics, and 3 ng/ml of bFGF (PeproTech, Rockhill, N.J.). To evaluate endothelial cell migration, a Boyden Chamber-based assay was performed. First, the polycarbonate membranes with […] (Neuro Probe Inc., Cabin John, Md.) were coated with […] of collagen type I following manufacturer's instructions (Becton Dickinson, Bedford, Mass.). […] Each sample was tested in quadruplicate and a representative field in each well was counted at 10 x magnification to determine the number of migrated cells.
Fifty micrograms of the recombinant angiostatin in […] of serum-free DMEM was reduced by incubating with […] of 0.5 M dithiothreitol for 15 minutes at the room temperature. […] The homogeneity of the reduced and alkylated angiostatin was analyzed by SDS-PAGE before being examined for its inhibition on BCE cell migration. The endotoxin concentrations of both native and reduced/alkylated angiostatin were evaluated according to manufacturer's instructions (Associates of Cape Cod, Woods Hole, Mass.). […]

[2] = test system: endothelial cell proliferation; details: previously described / reported; cited from earlier work

With Angiostatin the IC50 [1] was ~50 nM.

B1: K4: recombinant plasminogen kringle region 4, expressed in Pichia pastoris (protein)
chain: VQDCYHGDGQSYRGTSSTTTTGKKCQSWSSMTPHRHQKTPENYPNAGLTMNYCRNPDADKGPWCFTTDPSVRWEYCNLKKCSGT
modifications: human
notes: recombinant plasminogen kringle region 4, expressed in Pichia pastoris
In the case of B1, the IC50 [1] is listed as 500 nM and the “effect on endothelial cell proliferation (in words)” value [2] is listed as “negligible effect on endothelial cell proliferation”.

From patent US6538103B1, “Lysine binding fragments of angiostatin” (Bristol--Myers Squibb Company, priority 1998, dated 2003)
